Test results from patent US10774129B2, “Complexes of types of MHC class II that bind to collagen type II peptides and their use on diagnosis and treatment” (FRAUNHOFER-GESELLSCHAFT ZUR FÖRDERUNG DER ANGEWANDTEN …, priority 2011, dated 2020).
Square brackets hold non-standard residues; d marks the D form. Ends that are not written are not given here. Cit = NC(=O)NCCC[C@H](N)C(=O)O

How the values were obtained:
[1] = system: MHC class II of the HLA DRB1 1001 genotype; test: in vitro binding assay to recombinant MHC class II protein; parameters: species or system human; key to Binds to 1001: *0101: the listing of the allele in the column for the allele indicates binding; *0401: “0401” in the “Binds to 0401” column indicates binding of the peptide to MHC class II of the HLA DRB1 0401 genotype; *0404: the listing of the allele in the column for the allele indicates binding; *0405: the listing of the allele in the column for the allele indicates binding; *0408: the listing of the allele in the column for the allele indicates binding; *1001: the listing of the allele in the column for the allele indicates binding; “no” or no data indicates no binding to a protein of that genotype; details: recombinant MHC class II, HLA DRB1 1001
Text: (§1) Binding of the peptides to recombinant MHC class II protein of various alleles has been confirmed in an in vitro binding assay and the results are shown in Tables 1, 2 and 3. In table 1, 2 and 3, the listing of the allele in the column for the allele indicates binding. Thus “0401” in the “Binds to 0401” column indicates binding of the peptide to MHC class II of the HLA DRB1 0401 genotype. “no” or no data indicates no binding to a protein of that genotype. Empty boxes indicate no binding or that binding has not been determined. In the tables it is also indicated if the peptide has a citrulline residue, where “yes” indicates the presence of a citrulline residue and “no” indicates the absence of a citrulline residue.

[2] = system: MHC class II of the HLA DRB1 0408 genotype; test: as above; parameters: species or system human; key: *0101: the listing of the allele in the column for the allele indicates binding; *0401: “0401” in the “Binds to 0401” column indicates binding of the peptide to MHC class II of the HLA DRB1 0401 genotype; *0404: the listing of the allele in the column for the allele indicates binding; *0405: the listing of the allele in the column for the allele indicates binding; *0408: the listing of the allele in the column for the allele indicates binding; *1001: the listing of the allele in the column for the allele indicates binding; “no” or no data indicates no binding to a protein of that genotype
Text: as §1

[3] = target: MHC class II of the HLA DRB1 0401 genotype (Homo sapiens, UniProt P01903+P01911, A100K/A169T/F76Y/I96L/K127E/L162R/M171V/N62H/P40V/Q125Y/R42H/S133A/S149N/S66Y/V115G/V209L/W38E); test: as above; parameters: key to Binds to 0401: *0101: the listing of the allele in the column for the allele indicates binding; *0401: “0401” in the “Binds to 0401” column indicates binding of the peptide to MHC class II of the HLA DRB1 0401 genotype; *0404: the listing of the allele in the column for the allele indicates binding; *0405: the listing of the allele in the column for the allele indicates binding; *0408: the listing of the allele in the column for the allele indicates binding; *1001: the listing of the allele in the column for the allele indicates binding; “no” or no data indicates no binding to a protein of that genotype; details: for Binds to 0401: recombinant MHC class II, HLA DRB1 0401
Text: as §1
Thus for these peptides no binding to HLA-DR0401 was observed when citrulline was exchanged with the original amino acid arginine (Table 4). No binding of the citrullinated peptides was seen to HLA-DR 03 or 02 variants.

[4] = target: MHC class II of the HLA DRB1 0101 genotype (Homo sapiens, UniProt P01903+P01911, A100R/D57E/F55L/F60I/F76Y/I96L/L162R/M171V/P40L/Q125E/R42F/V115G/Y59C); test: as above; parameters: key: *0101: the listing of the allele in the column for the allele indicates binding; *0401: “0401” in the “Binds to 0401” column indicates binding of the peptide to MHC class II of the HLA DRB1 0401 genotype; *0404: the listing of the allele in the column for the allele indicates binding; *0405: the listing of the allele in the column for the allele indicates binding; *0408: the listing of the allele in the column for the allele indicates binding; *1001: the listing of the allele in the column for the allele indicates binding; “no” or no data indicates no binding to a protein of that genotype
Text: as §1

[5] = target: MHC class II of the HLA DRB1 0404 genotype (Homo sapiens, UniProt P01903+P01911, A100R/A169T/F76Y/I96L/K127E/L162R/M171V/N62H/P40V/Q125Y/R42H/S133A/S149N/S66Y/V209L/W38E); test: as above; parameters: key: *0101: the listing of the allele in the column for the allele indicates binding; *0401: “0401” in the “Binds to 0401” column indicates binding of the peptide to MHC class II of the HLA DRB1 0401 genotype; *0404: the listing of the allele in the column for the allele indicates binding; *0405: the listing of the allele in the column for the allele indicates binding; *0408: the listing of the allele in the column for the allele indicates binding; *1001: the listing of the allele in the column for the allele indicates binding; “no” or no data indicates no binding to a protein of that genotype
Text: as §1

[6] = target: MHC class II of the HLA DRB1 0405 genotype (Homo sapiens, UniProt P01903+P01911, A100R/A169T/D86S/F76Y/I96L/K127E/L162R/M171V/N62H/P40V/Q125Y/R42H/S133A/S149N/S66Y/V115G/V209L/W38E); test: as above; parameters: key: *0101: the listing of the allele in the column for the allele indicates binding; *0401: “0401” in the “Binds to 0401” column indicates binding of the peptide to MHC class II of the HLA DRB1 0401 genotype; *0404: the listing of the allele in the column for the allele indicates binding; *0405: the listing of the allele in the column for the allele indicates binding; *0408: the listing of the allele in the column for the allele indicates binding; *1001: the listing of the allele in the column for the allele indicates binding; “no” or no data indicates no binding to a protein of that genotype
Text: as §1

[7] = system: PBMCs (CD4+ T cells) from rheumatoid arthritis patients with HLA genotype HLA DRB1-0401; test: T-cell activation in PBMCs, intracellular cytokine staining and CD154 by flow cytometry; type: cell-based, human; details: HLA DRB1-0401 patients; 5 to 50 ug/ml, 5-day incubation

| Substance | Binds to 1001 [1] | Binds to 0408 [2] | binding to HLA-DRB1 0401 [3] | Binds to 0401 [3] | Binds to 0101 [4] | Binds to 0404 [5] | Binds to 0405 [6] | double staining for CD154 and at least one cytokine (IFNgamma, IL-17A, TNF alpha), activation of T-cells [7] |
| --- | --- | --- | --- | --- | --- | --- | --- | --- |
| a-enolase 6: human alpha-enolase peptide, not citrullinated; non-citrinullated counterpart of peptide 291 (TSKGLFRAAVPSGAS; listed as Homo sapiens) | no | no | does not bind | no | *0101 | *0404 | *0405 | did not result in a response |
| a-enolase 12: human alpha-enolase peptide, not citrullinated (RYMGKGVSKAVEHIN; listed as Homo sapiens) | *1001 | *0408 |  | no | *0101 | no | *0405 |  |
| a-enolase 13: human alpha-enolase peptide, not citrullinated (GVSKAVEHINKTIAP; listed as Homo sapiens) | no | no |  | no | *0101 | *0404 | no |  |
| a-enolase 14: human alpha-enolase peptide, not citrullinated (VEHINKTIAPALVSK; listed as Homo sapiens) | no | *0408 |  | no | *0101 | *0404 | no |  |
| a-enolase 15: human alpha-enolase peptide, not citrullinated (KTIAPALVSKKLNVT; listed as Homo sapiens) | no | *0408 |  | no | *0101 | *0404 | no |  |
| a-enolase 26: human alpha-enolase peptide, not citrullinated (KGVPLYRHIADLAGN; listed as Homo sapiens) | no | *0408 |  | *0401 | *0101 | *0404 | *0405 |  |
| a-enolase 34: human alpha-enolase peptide, not citrullinated (QEFMILPVGAANFRE; listed as Homo sapiens) | no | no |  | *0401 | *0101 | *0404 | *0405 |  |
| a-enolase 36: human alpha-enolase peptide, not citrullinated (ANFREAMRIGAEVYH; listed as Homo sapiens) | no | no |  | no | *0101 | no | *0405 |  |
| a-enolase 38: human alpha-enolase peptide, not citrullinated (AEVYHNLKNVIKEKY; listed as Homo sapiens) | no | *0408 |  | *0401 | *0101 | no | *0405 |  |
| a-enolase 45: human alpha-enolase peptide, not citrullinated (KEGLELLKTAIGKAG; listed as Homo sapiens) | no | *0408 |  | *0401 | *0101 | *0404 | *0405 |  |
| a-enolase 57: human alpha-enolase peptide, not citrullinated (KSFIKDYPVVSIEDP; listed as Homo sapiens) | *1001 | *0408 |  | *0401 | *0101 | *0404 | *0405 |  |
| a-enolase 69: human alpha-enolase peptide, not citrullinated (LLKVNQIGSVTESLQ; listed as Homo sapiens) | no | no |  | no | no | no | *0405 |  |
| a-enolase 80: human alpha-enolase peptide, not citrullinated (GAPCRSERLAKYNQL; listed as Homo sapiens) | no | *0408 |  | no | *0101 | no | *0405 |  |
| a-enolase 81: human alpha-enolase peptide, not citrullinated (SERLAKYNQLLRIEE; listed as Homo sapiens) | no | no |  | no | *0101 | *0404 | no |  |
| a-enolase 299: citrullinated human alpha-enolase peptide (KGVPLY[Cit]HIADLAGN; listed as Homo sapiens) | no | *0408 |  | *0401 | no | no | *0405 |  |
